Assay results: patent US20110269679A1, “INHIBITORS OF AMYLOID FIBRIL FORMATION AND USES THEREOF” (priority 2004, published 2011)
Entries after “also recorded” stand apart in the source; their conditions may differ.

Columns and labels:
IAPP 1-37 [1] = molecular target: T1, IAPP 1-37 (Homo sapiens, UniProt P10997); assay: Negative stain electron microscopy of IAPP amyloid fibrils; conditions: negatively-stained preparations, IAPP + peptide, molar ratio 1:10
T1 sequence (P10997 34-70): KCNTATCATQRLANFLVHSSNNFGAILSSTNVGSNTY
Text: 2. Negative Stain Electron Microscopy: IAPP amyloid morphology and relative density of the fibrils can be examined by transmission EM techniques. This provides information of the morphology of the aggregates formed (e.g., amorphous, fibrillar, truncated/protofilament structures, and/or abnormal lateral aggregation profiles). In addition, scanning of multiple grids and samples can be performed by an experienced EM technician who will assess the relative amount of fibrils formed in the presence of each inhibitor. This supporting evidence can be used to rank the relative activities of the inhibitors. Aliquots are taken from the samples used for CD analysis, and applied to pioloform coated grids, blotted dry, and stained with phosphotungstic acid (pH 7.0).

IAPP 1-37 [2] = molecular target: T1, IAPP 1-37; assay: Circular dichroism (CD): IAPP random coil to β-sheet conformational transition; conditions: for CD activity of modified or truncated tripeptides compared with ANF: significantly lower molar ratios than ANF
Text: 1. Circular Dichroism (CD): Amyloidogenic peptides and proteins undergo a conformational transition from a native to β-sheet conformation. […] In the case of peptides such as Aβ and IAPP, the non-fibrillar forms are essentially random coils that subsequently convert to a β-sheet under different conditions of pH and concentration.
CD provides a global view of the peptide secondary structure over an extended time course that can be used to monitor the amyloid conformational transition (L e. , diagnostic absorption minima for β-conformation at 218 nm). IAPP is initially treated with hexafluroisopropanol (HFIP) and trifluroacetic acid (TFA), to ensure it is in a monomeric form. IAPP 1-37 (50 μM) in the presence of inhibitors (50 μM-1.0 mM) are compared to controls, with spectra collected twice daily for a period of 72 hours. (β-sheet conversion and precipitation occurs at 48-72 hrs depending on conditions used.) Inhibitors can be evaluated for their ability to maintain IAPP in a random or non-β conformation. This can be determined by direct comparisons of the spectra obtained, and by quantitative analyses using deconvolution algorithms (e.g., Jasco J720 spectropolarimeter contained in the inventor's laboratory, and equipped with Spectra Manager).

full-length IAPP1-37 = molecular target: T2, full-length IAPP1-37 (Homo sapiens, UniProt P10997); conditions: earlier work, Fraser WO 02/24727; cited from earlier work
T2 construct: When combined with full-length IAPP1-37 at relatively low molar ratios of 1:5 and 1:1
T2 sequence (P10997 34-70): T1 sequence (P10997 34-70)

[3] = system: rat insulinoma line (RIN-1056A) exposed to exogenous IAPP 1-37; assay: IAPP amyloid toxicity assay in RIN cells (AlamarBlue cell viability); type: cell-based; conditions: molar ratio of 1:20 [IAPP:inhibitor]
Description: 3. IAPP Amyloid Toxicity: Amyloid fibril cytotoxicity may be due to an apoptotic mechanism and/or mechanical disruption of the plasma membrane. The ability of inhibitors to prevent toxicity in cells exposed to exogenous amyloid is another indication of activity that is assessed. A rat insulinoma line (RIN-1056A) having β-cell-like characteristics is exposed to 10 μM IAPP 1-37 with inhibitors added simultaneously to the medium at 1-20 fold excess. IAPP and inhibitors are not pre-mixed, but are added separately to the cell culture medium to maximize the similarities to conditions in vivo.
Toxicity is assayed both over the short (sampling every 2 hr over an 8-10 hr period) and long term (every 12 hr for a period of 6-7 days). Data from these investigations will indicate if the inhibitors are able to regulate this more physiological action of IAPP.

| relative level/density and morphology of IAPP amyloid fibrils (EM) (IAPP 1-37 [1]) | Substance | inhibitory activity of hexapeptide fragments (full-length IAPP1-37) | activity in the RIN-cell toxicity assay using exogenous IAPP [3] | also measured |
| --- | --- | --- | --- | --- |
| active | NFL: truncated tripeptide of hexapeptide ANFLVH (Tripeptide derived from human IAPP) | – | – | CD activity of modified or truncated tripeptides compared with ANF (IAPP 1-37 [2]): similar, but more potent, activities at significantly lower molar ratios |
| – | ANFLVH: original hexapeptide from the IAPP 8-20 domain (13-18), disclosed in WO 02/24727 (Hexapeptide derived from human IAPP) | displayed inhibitory activity | – | – |
| – | ANFLV: pentapeptide sub-fragment of hexapeptide ANFLVH (Pentapeptide derived from human IAPP) | – | showed activity | – |
| – | ANFL: tetrapeptide sub-fragment of hexapeptide ANFLVH (Tetrapeptide derived from human IAPP) | – | showed activity | – |
| – | NFLVHS: hexapeptide from the IAPP 8-20 domain, disclosed in WO 02/24727 (Hexapeptide derived from human IAPP) | displayed inhibitory activity | – | – |
| significantly reduced density of fibrils | AGF: tripeptide ANF substituted with G at its second position (Tripeptide derived from human IAPP) | – | more activity than ANG (SEQ. ID. NO. 27) or ANF (SEQ. ID. NO. 24) | CD activity of modified or truncated tripeptides compared with ANF (IAPP 1-37 [2]): similar, but more potent, activities at significantly lower molar ratios |
| significantly reduced density of fibrils | GNF: tripeptide ANF substituted with G at its first position (Tripeptide derived from human IAPP) | – | more activity than ANG (SEQ. ID. NO. 27) or ANF (SEQ. ID. NO. 24) | CD activity of modified or truncated tripeptides compared with ANF (IAPP 1-37 [2]): similar, but more potent, activities at significantly lower molar ratios |
| – | SNNFGA: hexapeptide from the IAPP20-29 region, disclosed in WO 02/24727 (Hexapeptide derived from human IAPP) | displayed inhibitory activity | – | – |
| – | GAILSS: hexapeptide from the IAPP20-29 region, disclosed in WO 02/24727 (Hexapeptide derived from human IAPP) | displayed inhibitory activity | – | – |

| Substance | relative level/density and morphology of IAPP amyloid fibrils (EM) (IAPP 1-37 [1]) | inhibitory activity of hexapeptide fragments (full-length IAPP1-37) | activity in the RIN-cell toxicity assay using exogenous IAPP [3] | also measured |
| --- | --- | --- | --- | --- |
| ANG: tripeptide ANF substituted with G at its third position (Tripeptide derived from human IAPP) | lower activity based upon the presence of multiple aggregate forms | – | lower activity in the toxicity assay | – |
| ANF: truncated tripeptide of hexapeptide ANFLVH, IAPP residues 13-15 (Tripeptide derived from human IAPP) | reduced the relative levels of fibrils, and altered the morphology of the aggregates which were formed; also recorded: reduced the relative levels of fibrils and altered the morphology of the aggregates which were formed | – | showed activity; also recorded: greater activity than the tetra- or penta-peptide | inhibition of IAPP conformational change from random coil to β-sheet (CD) (IAPP 1-37 [2]; combined with IAPP at a molar ratio of 1:10): inhibited this conformational change |
